21 sequences from the DeepSol protein solubility set can be followed below.

The data set can be described thus: soluble on expression in E. coli; label from the status in PepcDB or PDB records.
As for “MKQITIASRESKLALWQTNFVKNRIQLELNIPCEISTMKTQGDIILDQPLNKIGGKALFMKELEVAMLSNKADIAVHSLKDVPYQLPQGFCLAGFMPREDPRDAFVSNKYNSIDDLPKGAVVGTSSLRRKAQLLHYRDDLEIRDLRGNIQTRLSKLDNGDYDAIILASAGLIRLELVERITQFIPVEISLPAVGQGIVVIEALERDNDLLEKIQKLNCRESSRVATAERAFNQELKGGCHVAIGAYAELDNNQITLMAMVASSDGKKILKRKMIGDDPTKLGKLLAQEMIALGAYKILES”, the “soluble on expression in E. coli” value was “not soluble”. “MAHHHHHHMRLILLGAPGAGKGTQANFIKEKFGIPQISTGDMLRAAVKAGTPLGVEAKTYMDEGKLVPDSLIIGLVKERLKEADCANGYLFDGFPRTIAQADAMKEAGVAIDYVLEIDVPFSEIIERMSGRRTHPASGRTYHVKFNPPKVEGKDDVTGEPLVQRDDDKEETVKKRLDVYEAQTKPLITYYGDWARRGAENGLKAPAYRKISGLGAVEEIRARVRRAQVSE”: the “soluble on expression in E. coli” value is listed as “soluble”. With “MSVQSITESNQPPVICLMGPTASGKTALAMALKDALPCDIVSVDSALIYRDMDIGTAKPTKSELVQYPHRLIDLRDASESYSAADFCRDALVEIAEIRSNGRIPLLVGGTMMYFKSLIEGISPLPTANPEIRQAIEAEALSKGWQAMHDQLAEIDPVSAERIHPNDPQRITRALEVYRLTSNTLTQLTQIKGAKLAGDVLQLAITPRERSTLHERIALRYQQMIDLGFEQEVIKLKSRDDLHQDLPSIRCVGYRQMWQHLEGEFDHDEMIFRGVCATRQLAKRQLTWLRNWPDLHWLTTDDKTNLAQVLSLLEAKH” the entry was “not soluble”; with “MGHHHHHHSHMLREPGDPEKLGEFLQKDNISVHYFCLILSSKLPQRGQSNRGSMDFCLKTSKRRQPGLLGRSALCARKRELLSTARRISASETSICLVAKKGVAFHNFLESTNHFVTNIAQHRTSNMGMWGRKAASYVVKTYPNRVLRTSRARVVVKPSTTASAYRNMPTHQQSISSNVHSVTIERVSSRNAENGNPYSRQEVVPHSVCYVRIPRNPQGLLLS”, “not soluble”; with “SKTNHIVIIGYSRIGKCVALSLINRGDPVVIVEESKRLTDKAIADGFEVICGNIIKQDVMNAANMSNAYKVVITMCNTIEVGECIVNIRDMNKDIQIITHTLSDVDTAYLIDLGADIVVTDEEEIANGVIEHITGQRFIKNIAQS”, “soluble”. “MSLEFQLDLIRGEHMEIEKLLEQVNWEKNNGIVPVIVQDEKGEVLTLAYMNKEALRKTLETGIAHYYSRSKGRIRMKGEVSGNIQTVKEIKIDCDNDALLLIVSPKGPACHTGNYSCFYRKLGEPERVLPIDYSLSILKELEEIIKRRKETPVEGSYTSKLFKEGREKIYKKFGEEAIEVLVAEKRERIIYEVADLLYHLLVLLTYNDISLGEVMNELRRRRKEGHHHHHH”: the “soluble on expression in E. coli” value is on record as “soluble”. Under “MITAERYHDISMGHRVVGHDHKCRHLHGHNYRIHFICSAPALDSIGRVVDFGVIKELLCQWLEDHWDHKMMLWEQDPLLPALRATVPDDLVAVPFNPTAENMAVYLTEVVGPMQLAGTGVTLIGCRVDETRKCSASYTL” stands “not soluble”; under “MGSDKIHHHHHHMAYIKRTIETTIENAAKMFSTVLITGARQVGKTTVLKHITEDISYLTLDDPILLLNAFEEAGSFFKSTPPPVIIDEIQYAPNLFPYIKMIADENGKRGQFYLTGSQQFKMMKNVSESLAGRIGIINLLGLSLREIKGDADFNKAFIPTESYLETRRLSAKELNYKEIWKIIYKGSMPAMYADELDWQLFYGSYTKTYLERDVRELTQVGDELKFIKFMTAMASRTSQMLNLTSIANEVGISVPTADRWLSILVSSNIVYLLKPYYNNIMKRAVKTPKLYFLDTGLAAYLTKWNSPDVIEAGAMSGAFFETFVLAEILKGYYNAGILEPALYYYRDKDAKEIDIILEENGTLYPIEIKKTANPSKEHIANFSVLDRLKDMKIGTGCVICMYDKVIHINDNNVSIPVTWL”, “not soluble”; under “GSHMAITGTIAAIATAIVPQQGSVGIVRVSGSQAIAIAQTLFDAPGKQVWESHRILYGYIRHPQTRQIVDEALLLLMKAPRSYTREDVVEFHCHGGIIAVQQVLQLCLESGARLAQPGEFTLRAFLNGRLDLTQAESIADLVGARSPQAAQTALAGLQGKLAHPIRQLRANCLDILAEIEARIDFEEDLPPLDDEAIISDIENIAAEISQLLATKDKGELLRTGLKVAIVGRPNVGKSSLLNAWSQSDRAIVTDLPGTTRDVVESQLVVGGIPVQVLDTAGIRETSDQVEKIGVERSRQAANTADLVLLTIDAATGWTTGDQEIYEQVKHRPLILVMNKIDLVEKQLITSLEYPENITQIVHTAAAQKQGIDSLETAILEIVQTGKVQAADMDLAINQRQAAALTQAKMSLEQVQATITQQLPLDFWTIDLRGAIQALGEITGEEVTESVLDRIFSRFCIGK”, “soluble”. With “MSPWERILLEEILSEPVRLVKERVRTHTGRELTYVYRPGPVAASFVLPVTERGTALLVRQYRHPTGKFLLEVPAGKVDEGETPEAAARRELREEVGAEAETLIPLPSFHPQPSFTAVVFHPFLALKARVVTPPTLEEGELLESLELPLTEVYALLAKGEIQDASTALTLFYAEPHLKRLGLL”, the “soluble on expression in E. coli” value is “soluble”. Turning to “MANGTVKIAEQSGVLPIAGDKIVLITARGSGRWIIPKGYIEKGMSPAESAAKEAWEEAGIVGSVRHEEIGTYSYRRPSGIFSVRIYPLEVESLLEQWDEMHVRQRRLVTPSEAIEMICLKELRSLITDYLIKRFDFLEHHHHHH”, the “soluble on expression in E. coli” value is listed as “not soluble”. With “MGSDKIHHHHHHVKKLELYTGTEQGKPAIGIRLGGEASIQDLLDLWQPLCDDSELFKSYAAGNHATCRGCLHNCCQTAYVIPDLISFKKMAAHLHLTYKEFLSADFFDAEKLEAGIVRMKPNPCIFLQDNICSIYPLRSLICRFYICCQLMGDCEQLIYSICWSGSAATQLFAEQEGLINSKGSGALSSFDLMFKRLMEEYRFDPRVQLFLQANDYYDIPLSAFTAADI”, the “soluble on expression in E. coli” value is given as “not soluble”.

With “MAHHHHHHMPFVVTHPPDTAELVEGEPFYSLAMYTLLSSTTDVVPALRNFTFQLRAFNVLPPYDAVGLLSGIDSTGLIVWGGALGFLEWLVQHPDRLQARMRNVSKAQAHVIELGCGSGVVAVALCALLRGLDLPDLVEKSISSSPAVCVWATDGNPECVSLAERNLRAQLKEPCTSCPGVAASAALLRWGDAAAVQEALQTSFPGCTAASSITVVAADVLYDAAVVPLLVSTVAEIARVHVAGAGPSTLPGSVEWWLAYTPRSLTRALNEAIFQALLDSIADHGWTYELVDLPAGAVATGFEENPDCSVPALSGCILVVQVTCDTRS”, the “soluble on expression in E. coli” value is given as “not soluble”. In the case of “MASYSQFLTKAQEDELRSIANAIVTPGKGILAADESTGSMDKRLNSIGLENTEENRRKYRQLLFTAGADLNKYISGVIMFHETFYQKTDDGKPFTALLQEQGIIPGIKVDKGVVPMAGTIGEGTTQGLDDLNARCAQYKKDGAQFAKWRCVHKISSTTPSVTALKEIASNLARYASICQQNGLVPIVEPEILPDGEHCLARGQKITETVLSYVYHALNEHHVFLEGTLLKPNMVTSGQSFTGEKPSNADIGLATVTALQRGVPSAVPGVVFLSGGQSEEDATLNLNAINQVSGKKPWALTFSYGRALQASCLAKWAGKDENIAAAQEVLLHRAQVNSLASVGKYTGDASADAAASQSLFVANHSY”, the “soluble on expression in E. coli” value is “soluble”. Under “MRRKHDWLRETYRKSLEKIPERPVAHRTLSNIAPDPLYTPEDIGVLDPEYEEKRGFPGEFPYTRGVYGSMYRSKLWTMRMFAGFGTAEQTNERFKKLLKAGQTGLSVAFDLPTLMGYDSDHPLSKGEVGKCGVAVSSLADMEILFEGINLEEVTTSMTINSPANAIWAMYLAVAKKRGYDWKKLGGTIQNDILKEYIAQKEFIFPPEPSVKLVIDTFEWGPKNVPKWNFISVSGYHIREAGSTAVQELAWTLADGFEYVEAALKRGLDIDEFAPRISFFFDVHNDFFEEIAKFRAARRIWAKEMRYRYKAKNPQSWMLRTHAQTAGVSLTAQQPLNNIARVAIQALAAVLGGTNSLHTDAYDEALALPTEESATIALRTQQIIAYETGVTHTIDPLAGSYYVEWLTDEMERQAMEIIEEIRRMGGVVRAIEEGYFLRELAEASYRYQQEVERKERIIVGVNAFTDEIPLKVPIQLVDPEVERVQAERLARVRRERDPKRVEEALQGLRRAAVEGQNTMPHFVECALAYCTLGEMMDVLREVYGTYQEPAYV” stands “soluble”; under “MKLIFILSIIFLSSLSVAQSPISCAFCMAGLAQINQQVISSPDMEAQMGIQASQGCDQIPVKQTRETCRGSLNTNFNIFYSNFTGQANNSPTQMCINMGMC”, “not soluble”; under “TGEKTILKLKRSCLKPELRRIKAIVGLGLSGFTMAITNCTVQIMCNATLQAYGGDLYVGVMTVVNSVREVASLPVSGITQSAQPVLGFNYGAGEYGRVKKA”, “not soluble”. Under “MGSDKIHHHHHHMKKKTTTVYVDKQYKLTRDVAPLSFMLPIKHSRRFPLLHFDESTGTNRELRYARNQKSPFVDKQDGNALLEPVIFEDGFLFVKKENQVLQQFLHYHPLNGTKFVEVDKSKDAAQVVDQLMIEADALVEAKKLSLEQLENVCRVLFNTNVDKLTTAEMKRDVLVFAKNNPQDFLDICSDPELKIMGMVQSFFDKGHLAYRKSKKEVWYNTPTNKTKMLNVPFGADGLDLVVSYLQSDEGIDVLKHLETL” stands “not soluble”; under “MGSSHHHHHHSSGLVPRGSPQPPADEQPEPRTRRRAYLWCKEFLPGAWRGLREDEFHISVIRGGLSNMLFQCSLPDTTATLGDEPRKVLLRLYGAILQMRSCNKEGSEQAQKENEFQGAEAMVLESVMFAILAERSLGPKLYGIFPQGRLEQFIPSRRLDTEELSLPDISAEIAEKMATFHGMKMPFNKEPKWLFGTMEKYLKEVLRIKFTEESRIKKLHKLLSYNLPLELENLRSLLESTPSPVVFCHNDCQEGNILLLEGRENSEKQKLMLIDFEYSSYNYRGFDIGNHFCEWMYDYSYEKYPFFRANIRKYPTKKQQLHFISSYLPAFQNDFENLSTEEKSIIKEEMLLEVNRFALASHFLWGLWSIVQAKISSIEFGYMDYAQARFDAYFHQKRKLGV”, “soluble”; under “LESALIEVNGKQQLRYEFLNDMLTQQNFQTNPIYAILHESIYCQDFASNWSAHRVRQTRPEFNYEPDQPFYFTGEMVFPWMFDQYVNLKPLKDAAEILAAKEDWAALYDQTQLAQNKVPVSCAVYADDMFVEMDISRETLALIPNSKAWITNEYEHNGLRADGERILDRLIAMGKQTAATLK”, “not soluble”. Under “MGSDKIHHHHHHMAPASFSQITGQSVGKIGVLFLLLMVLWSANLCNSSDITPLSANRANVGQMVQAFTFDDLFKEDGPSSDLPQRVFRQTSSWRGFSQLEFAETIASPKHASKLRLRSELSNLGQLSPNVKWKLSARIDYDAIYDLSDFYSRQVRRDQRFELFLRENYLDFSIADFDVRVGRQHIVWGEMVGLFFADVVSAKDMREFVLPDFDILRIPQWAVRTEYSKNDFHADLIWIPFASLDEIGRPGADFYPFKLPVAAPVSFLKEDRSGRNVAHSNYGIRLSQLTNGWDVSAFYYHSLDATPTFHRISQPWEPLLFQARHGEIDQAGGTVTKDLGSAVLKGEFVYTHGRRFNVTRPTAADGLVRQDTIDYALGLDFTLPSDIRLNLQFFQRAYLNYDRDIFQDRLENGGSIFLQGDLWRDFQGQILLIHSFNRNEWMLRPRLTWNFARNWKLAAGADIFNGPPTGLFGRFDSSDRVYTELRFSF” stands “not soluble”.
